The values that follow come from patent US9958461B2, “Detection of protein to protein interactions” (THE GOVERNING COUNCIL OF THE UNIVERSITY OF TORONTO, priority 2013, dated 2018).

Experiment [1] has as its target T1, EGFR-Wt (Homo sapiens, UniProt P00533).
T1 construct: with the advantage of testing full-length integral membrane proteins; (GGGGS)2 linker-Cub (human ubiquitin aa 35-76)-GAL4(1-147)-mNFkB(364-550) (C); expressed in transfected cells
Nature of the experiment: MaMTH EGFR-interactor screen, lentiviral preys against EGFR-wildtype bait (interaction score). It counts as cell-based. Particulars: MaMTH interaction score of prey with EGFR-Wt bait, mean. The method in brief: (§1)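 Interaction score is the luciferase fold-change versus averaged negative controls (Fabp5, Pex19, Pex7, GABBR2), with >1 called interacting. Luciferase was measured 24 h after triplicate bait transfection. This followed single-copy prey transduction (MOI ~0.3-0.4) of GAL4UAS-luciferase HEK293T cells and ≥48 h puromycin selection.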

The subject of experiment [2] is EGFR-Wt. Described as above. The class given is cell-based, human. The following applies: ratio of EGFR-Wt mean to EGFR-L858R mean interaction score. The method in brief: as §1
The target in experiment [3] is T2, EGFR-L858R (Homo sapiens, UniProt P00533, L858R).
T2 construct: with the advantage of testing full-length integral membrane proteins; (GGGGS)2 linker-Cub (human ubiquitin aa 35-76)-GAL4(1-147)-mNFkB(364-550) (C); expressed in transfected cells
Nature of the experiment: MaMTH EGFR-interactor screen, lentiviral preys against EGFR-L858R bait (interaction score). It counts as cell-based. Particulars: MaMTH interaction score of prey with EGFR-L858R bait. The method in brief:
as §1

B1: SOCS6 (protein, UniProt O14544 1-535, looked up)
Suppressor of cytokine …: MKKISLKTLRKSFNLNKSKEETDFMVVQQPSLASDFGKDDSLFGSCYGKDMASCDINGEDEKGGKNRSKSESLMGTLKRRLSAKQKSKGKAGTPSGSSADEDTFSSSSAPIVFKDVRAQRPIRSTSLRSHHYSPAPWPLRPTNSEETCIKMEVRVKALVHSSSPSPALNGVRKDFHDLQSETTCQEQANSLKSSASHNGDLHLHLDEHVPVVIGLMPQDYIQYTVPLDEGMYPLEGSRSYCLDSSSPMEVSAVPPQVGGRAFPEDESQVDQDLVVAPEIFVDQSVNGLLIGTTGVMLQSPRAGHDDVPPLSPLLPPMQNNQIQRNFSGLTGTEAHVAESMRCHLNFDPNSAPGVARVYDSVQSSGPMVVTSLTEELKKLAKQGWYWGPITRWEAEGKLANVPDGSFLVRDSSDDRYLLSLSFRSHGKTLHTRIEHSNGRFSFYEQPDVEGHTSIVDLIEHSIRDSENGAFCYSRSRLPGSATYPVRLTNPVSRFMQVRSLQYLCRFVIRQYTRIDLIQKLPLPNKMKDYLQEKHY
B1 gave an EGFR-Wt mean in experiment [1] of 1.22. Further, the Wt/L858R in experiment [2] was 0.21. The molecule further displayed an EGFR-L858R mean in experiment [3] of 5.90.
